We go through one substance from publication PMC2172889.

Assay [1] concerns the target epidermal growth factor receptor (human (endogenous in MDA-MB-231)) (UniProt P00533). Put plainly: radioligand binding.
Assay [2] has the same target. Briefly: flow cytometry on cells.

In turn, “recombinant domain III (DIII) of the laminin-5 γ2-chain (domain or fragment)” showed an IC50 2 (two-site competition, site 2) in assay [1] of 1180 nM. The same substance yielded a fluorescence, fold over control, at saturation in assay [2] of 12 fold.
